In article PMC5059719, “Tetrameric structure of the restriction DNA glycosylase R.PabI in complex with nonspecific double-stranded DNA” (Scientific Reports, 2016):

Key:
R.PabI Y68F R70D = biological target: T1, R.PabI Y68F R70D (Pyrococcus abyssi, UniProt Q9V2B6 8-226, Y68F;R70D); assay: EMSA; supershift only, about the same as Y68F; poly-dT competitor; EMSA: 0.1 uM DNA, 0.1-12.8 uM R.PabI dimer, 10 mM MES pH 6.0, 300 mM NaCl, 50 uM poly-dT (40 nt) competitor, 30 min at 4 C; 12% PAGE in 0.5x TBE at 4 C; details: protein: recombinant; chain copies: 4; label: 5'-fluorescein; blunt; self-complementary, 2 copies of S1
T1 sequence: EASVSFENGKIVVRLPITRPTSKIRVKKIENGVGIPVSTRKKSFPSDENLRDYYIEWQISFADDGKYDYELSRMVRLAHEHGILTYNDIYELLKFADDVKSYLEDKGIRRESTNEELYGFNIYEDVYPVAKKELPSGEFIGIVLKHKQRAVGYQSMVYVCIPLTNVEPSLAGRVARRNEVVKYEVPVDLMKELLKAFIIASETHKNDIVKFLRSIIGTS

R.PabI Y68F D71R = biological target: T2, R.PabI Y68F D71R (Pyrococcus abyssi, UniProt Q9V2B6 8-226, Y68F;D71R); assay: EMSA; dimer shift at 0.2-1.6 uM plus supershift; tetramerization inhibited; poly-dT competitor; EMSA: 0.1 uM DNA, 0.1-12.8 uM R.PabI dimer, 10 mM MES pH 6.0, 300 mM NaCl, 50 uM poly-dT (40 nt) competitor, 30 min at 4 C; 12% PAGE in 0.5x TBE at 4 C; details: protein: recombinant; chain copies: 2; label: 5'-fluorescein; blunt; self-complementary, 2 copies of S1
T2 sequence: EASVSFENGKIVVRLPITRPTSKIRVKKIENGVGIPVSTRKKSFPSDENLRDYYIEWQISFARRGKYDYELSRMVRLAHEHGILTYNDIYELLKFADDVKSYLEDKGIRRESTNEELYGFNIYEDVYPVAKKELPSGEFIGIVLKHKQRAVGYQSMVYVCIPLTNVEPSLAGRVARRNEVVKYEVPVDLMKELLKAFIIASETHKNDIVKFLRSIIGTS

R.PabI Y68F [1] = biological target: T3, R.PabI Y68F (Pyrococcus abyssi, UniProt Q9V2B6 8-226, Y68F); assay: EMSA; predominant supershift (tetramer), dimer band very weak; poly-dT competitor; EMSA: 0.1 uM DNA, 0.1-12.8 uM R.PabI dimer, 10 mM MES pH 6.0, 300 mM NaCl, 50 uM poly-dT (40 nt) competitor, 30 min at 4 C; 12% PAGE in 0.5x TBE at 4 C; details: protein: recombinant; chain copies: 2; label: 5'-fluorescein; blunt; self-complementary, 2 copies of S1
T3 sequence: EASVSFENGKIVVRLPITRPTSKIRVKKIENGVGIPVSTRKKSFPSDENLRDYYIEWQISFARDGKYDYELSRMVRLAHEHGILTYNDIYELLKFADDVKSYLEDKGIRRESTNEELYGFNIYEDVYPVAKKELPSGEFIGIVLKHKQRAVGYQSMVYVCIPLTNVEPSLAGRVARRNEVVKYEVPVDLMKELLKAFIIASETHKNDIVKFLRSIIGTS

R.PabI Y68F R70D D71R = biological target: T4, R.PabI Y68F R70D D71R (Pyrococcus abyssi, UniProt Q9V2B6 8-226, Y68F;R70D;D71R); assay: EMSA; similar to Y68F; poly-dT competitor; EMSA: 0.1 uM DNA, 0.1-12.8 uM R.PabI dimer, 10 mM MES pH 6.0, 300 mM NaCl, 50 uM poly-dT (40 nt) competitor, 30 min at 4 C; 12% PAGE in 0.5x TBE at 4 C; details: protein: recombinant; chain copies: 4; label: 5'-fluorescein; blunt; self-complementary, 2 copies of S1
T4 sequence: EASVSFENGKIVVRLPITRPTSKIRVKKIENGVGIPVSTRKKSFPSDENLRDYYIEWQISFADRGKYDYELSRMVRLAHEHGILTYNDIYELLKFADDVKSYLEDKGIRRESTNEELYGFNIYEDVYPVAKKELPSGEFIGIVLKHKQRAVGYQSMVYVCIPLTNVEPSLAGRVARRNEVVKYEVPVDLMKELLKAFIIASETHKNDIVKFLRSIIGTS

R.PabI R32A E63A = biological target: T5, R.PabI R32A E63A (Pyrococcus abyssi, UniProt Q9V2B6 8-226, R32A;E63A); assay: X-ray crystallography; 1.9 A; tetramer sandwiches dsDNA; 0.2 M calcium acetate, 0.1 M imidazole pH 8.0, 10% PEG8000; EMSA: 0.1 uM DNA, 0.1-12.8 uM R.PabI dimer, 10 mM MES pH 6.0, 300 mM NaCl, 50 uM poly-dT (40 nt) competitor, 30 min at 4 C; 12% PAGE in 0.5x TBE at 4 C; details: protein: recombinant; chain copies: 4; blunt; self-complementary, 2 copies of S1
T5 sequence: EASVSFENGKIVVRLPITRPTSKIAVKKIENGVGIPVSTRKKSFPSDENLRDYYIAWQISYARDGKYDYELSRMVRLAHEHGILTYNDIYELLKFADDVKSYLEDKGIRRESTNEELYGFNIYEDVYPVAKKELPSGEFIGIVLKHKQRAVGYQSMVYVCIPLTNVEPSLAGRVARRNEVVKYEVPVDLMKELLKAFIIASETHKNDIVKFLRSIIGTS

R.PabI Y68F [2] = biological target: T3, R.PabI Y68F; assay: EMSA; dimer shift at low concentration, supershift at high; poly-dT competitor; EMSA: 0.1 uM DNA, 0.1-12.8 uM R.PabI dimer, 10 mM MES pH 6.0, 300 mM NaCl, 50 uM poly-dT (40 nt) competitor, 30 min at 4 C; 12% PAGE in 0.5x TBE at 4 C; details: protein: recombinant; chain copies: 2; label: 5'-fluorescein; blunt; self-complementary, 2 copies of S3
R.PabI Y68F [3] = biological target: T3, R.PabI Y68F; assay: EMSA; about the same binding as co-crystallization DNA; poly-dT competitor; EMSA: 0.1 uM DNA, 0.1-12.8 uM R.PabI dimer, 10 mM MES pH 6.0, 300 mM NaCl, 50 uM poly-dT (40 nt) competitor, 30 min at 4 C; 12% PAGE in 0.5x TBE at 4 C; details: protein: recombinant; chain copies: 2; label: 5'-fluorescein; blunt; self-complementary, 2 copies of S2

B1: 20 bp nonspecific probe (same sequence as co-crystallization) (dsDNA)
DNA 1: GCACTAGTTCGAACTAGTGC
DNA 2: GCACTAGTTCGAACTAGTGC
binding result (R.PabI Y68F R70D): binds | binding result (R.PabI Y68F D71R): binds | binding result (R.PabI Y68F [1]): binds | binding result (R.PabI Y68F R70D D71R): binds

B2: 20 bp nonspecific dsDNA (co-crystallization) (dsDNA)
DNA 1: GCACTAGTTCGAACTAGTGC
DNA 2: GCACTAGTTCGAACTAGTGC
binding result (R.PabI R32A E63A): binds

B3: 20 bp specific probe (GTAC) (dsDNA)
DNA 1: GCATAGCTGTACAGCTATGC
DNA 2: GCATAGCTGTACAGCTATGC
binding result (R.PabI Y68F [2]): binds

B4: 20 bp nonspecific probe without GT, TA, AC steps (dsDNA)
DNA 1: GCATCGATTCGAATCGATGC
DNA 2: GCATCGATTCGAATCGATGC
binding result (R.PabI Y68F [3]): binds
